The values that follow are results of earlier work, collected in article PMC6158072.

The subject of one data set is Cys. To be noted: not stated (presumably the reduced thiol form).

As for Peroxiredoxin 5 (Prx5) (Homo sapiens), in the data set on Cys, the pKa is reported as 5.5.

Consider “Acetoacetate decarboxylase (not stated (Clostridium acetobutylicum inferred))”, for which the pKa result in the data set on Lys is “around 6”.

For orientation: pKa means the negative logarithm of the acid dissociation constant.
